Patent publication US20160009819A1

B1: 19E7 antibody (antibody, V domains shown)
VH: QVQLQQPGSVLVRPGASVKLSCKASGYTFTTYWMHWVKQRPGQGLEWIGEIHPYSGNNNNNEKFKGKATLTVDTSSSTAYVDLSRLTSEDSAVYYCARYDSNYVFAYWGQGTLVTVSA
VL: QIVLTQSPAIMSASPGEGVTITCSASSSVSYMHWFQQKPGTSPKLWIYSTSNLASGVPARFSGSGSGTSYSLTISRMEAEDAATYYCQQRDSYLTFGSGTKLEVK
B2: 7D4 antibody (antibody, V domains shown)
VH: QIQLVQSGPELKKPGETVKISCKASGYTFTNYGMNWVKQAPGKDLKWMGWINTYSGVPTYADDFKGRFAFSLETSASTAYLQINNLKNEDTATYFCARFSYYGRHYFDYWGQGTTLTVSS
VL: DIVLTQSPASLAVSLGQRATISCKASQSVDYDGDSYMNWYQQKPGQPPQLLIYAASNLGSGIPARFSGSGSGTDFTLNIHPVEEEDAATYYCHQSTDDPPWTFGGGTKLEIK
B3: 55A1 antibody (antibody, V domains shown)
VH: QIHLVQSGPELKKPGETVKISCKASGYTFTNYGMNWVKQAPGKGLKWMGWINTYSGVPTYAGDFKGRFAFSLETSASTAYLQINNLKNEDTATYFCARRGYYGRRYFDVWGTGTTVTVSS
VL: DIVLTQSPASLAVSLGQRATISCKASQSVDYDVDSYMHWYQQKPGQPPKLLIYAASNLASGIPARFSGGGSGTDFTLNIHPVEEEDVATYYCQQTIEDPPTFGGGTKLEIK
B4: 14A1 antibody (antibody, V domains shown)
VH: QIQLVQSGPELKKPGETVKISCKASGYTFTNYGMNWVKQAPGKGLKWMGWINTYSGVPTYADDFKGRFAFSLETSASTAYLQINNFKNEDTATYFCARFSYYGRHYFDYWGQGTALTASS
VL: DIVLTQSPASLAVSLGQRATISCKASQSVDYDGDSYMNWYQQKPGQPPKLLIYAASNLKSGIPARFSGSGSGTDFTLNIHPVEEEDAATYYCQQTTDDPPWTFGGGTKLEIK
B5: 13B3 antibody (antibody, V domains shown)
VH: EVQLQQSGPELLKPGASVKISCKASGYTFTEYTMHWVKQSHGKSLEWIGSINPYYGGTSYNEKFKDKATLTVDKSSNTAYMEFRSLTSEDCAVYYCARYGNYVGYFDYWGQGTTLTVSS
VL: ENVLTQSPAIMSASLGEKVTMSCRASSSVHYMYWYQQKSDASPKLWIYYTSNLAPGVPDRFSGSGSGNSYSLTISSMEGEDAATYYCQQFTSSPYTFGGGTKLEIK
B6: 53A11 antibody (antibody, V domains shown)
VH: EVQLQQSGPELLKPGASVKISCKASGYTFTDYTMHWVKQSHGKSLEWIGGINPYYGGTTYNEKFKDKATLTVDKSSSTAYMELRSLTSEDSAVYYCAKGDYYGGSYNYWGQGTTLTVSS
VL: DIVLTQSLATLSVTPGDSVSLSCRASQDISNSLHWYQQKSHESPRLLIKYASQSISGIPSRFSGSGSGTDFTLSINSVETEDFGMYFCQQSNSWPYTFGGGTKLEIK
B7: 23H8 antibody (antibody, V domains shown)
VH: EVQLQQSGPELLKPGASVKISCKASGYTFTDNTIHWVKQSHGKSLEWIGHINPYYGGTNNNEKFKDKATLTVDKSSSTAYMELRSLTSEDSAIYYCARKGIYYSSPFDYWGQGTTLTVSS
VL: DIQMTQTTSSLSASLGDRVTISCRASQDINNYLNWYQQKPDGTVKLLISYTSKLHSGVPSRFSGSGSGTDYSLTISNLEREDFATYFCQQGNTLPFTFGSGTNLEIK
B8: 16B3 antibody (antibody, V domains shown)
VH: DVKLVESGGGLVQPGGSLKLSCTASGFTFSGYTMSWVRQTPEKRLELVAEISFARDRAFYPDTVKGRFTISRDNAKNTLYLQMSSLKSEDTAMYYCTRLGGRNHDYWYFDVWGTGTTVTVSS
VL: DIVLTQSPTSLAVSPGQRATISCRASESVEYYGTSLMQWYQQKPGQRPQLLIYAASNVESGVPARFSGSGSGTDFSLNIHPVEEDDIAVYFCQQSWKVPFTFGSGTKLEIK
B9: 16E7 antibody (antibody, V domains shown)
VH: EVKLVESGGGLVQPGGSLKLSCAASGFTFSSYTMSWVRQTPEKRLELVAEISFTRSRAFYPDTVKGRFTISRDNAKNTLYLQMSSLKSEDTAMYYCARLGGNNYDYWYFDVWGTGTTVTVSS
VL: DIVLTQSPTSLAVSLGQRATISCRASESVEYYGTSLMQWYQQKPGQRPKLLIYAASNVESGVPARFSGSGSGTDFSLNIHPVEEDDIAMYFCQQSWKVPFTFGSGTKLEIK
B10: 14E1 antibody (antibody, V domains shown)
VH: QVQLQQSGAELVKPGASVRLSCKASGYTFTKYTIHWVKQRSGQGLEWIGWFYPGSDSIKYNEKFKDKATLTADKSSRTVYMELSRLTSEDSAVYFCARHEEYTNSLAYWGQGTLVTVSA
VL: DIQMTQTTSSLSASLGDRVTISCRASQDISNYLNWYQQQPDGTVKLLIYYTSRLHSGVPSRFSGSGSGTDYSLTISNLEQEDIATYFCQQGYTLPWTFGGGTNLEIK

molecular target: T1, human [1-305]-mouse chimeric EL with C2 tag (human; mouse) (UniProt Q9WVG5); assay: ELISA: antibody captured on anti-mouse IgG-Fc plate, C2-tagged EL heparin extract added, anti-C2-tag detection, A450 (Example 8)
T1 sequence: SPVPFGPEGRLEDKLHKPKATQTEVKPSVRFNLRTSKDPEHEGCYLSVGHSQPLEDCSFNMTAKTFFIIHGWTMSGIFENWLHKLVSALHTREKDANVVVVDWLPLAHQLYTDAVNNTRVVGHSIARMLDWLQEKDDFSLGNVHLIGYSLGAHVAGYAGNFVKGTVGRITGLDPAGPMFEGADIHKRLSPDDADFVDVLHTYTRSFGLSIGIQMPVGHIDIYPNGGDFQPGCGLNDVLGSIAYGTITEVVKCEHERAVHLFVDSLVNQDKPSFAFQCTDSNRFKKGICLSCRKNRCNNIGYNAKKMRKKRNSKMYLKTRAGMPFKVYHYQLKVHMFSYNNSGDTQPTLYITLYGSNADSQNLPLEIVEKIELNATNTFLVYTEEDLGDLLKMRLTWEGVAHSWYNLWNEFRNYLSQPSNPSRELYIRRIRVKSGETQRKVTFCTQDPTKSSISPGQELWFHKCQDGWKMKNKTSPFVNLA

| Binder | EC50 (read off the curve) |
| --- | --- |
| B1 | 6 ng/mL |

molecular target: T2, human [1-157]-mouse chimeric EL with C2 tag (human; mouse) (UniProt Q9WVG5); assay: as above
T2 sequence: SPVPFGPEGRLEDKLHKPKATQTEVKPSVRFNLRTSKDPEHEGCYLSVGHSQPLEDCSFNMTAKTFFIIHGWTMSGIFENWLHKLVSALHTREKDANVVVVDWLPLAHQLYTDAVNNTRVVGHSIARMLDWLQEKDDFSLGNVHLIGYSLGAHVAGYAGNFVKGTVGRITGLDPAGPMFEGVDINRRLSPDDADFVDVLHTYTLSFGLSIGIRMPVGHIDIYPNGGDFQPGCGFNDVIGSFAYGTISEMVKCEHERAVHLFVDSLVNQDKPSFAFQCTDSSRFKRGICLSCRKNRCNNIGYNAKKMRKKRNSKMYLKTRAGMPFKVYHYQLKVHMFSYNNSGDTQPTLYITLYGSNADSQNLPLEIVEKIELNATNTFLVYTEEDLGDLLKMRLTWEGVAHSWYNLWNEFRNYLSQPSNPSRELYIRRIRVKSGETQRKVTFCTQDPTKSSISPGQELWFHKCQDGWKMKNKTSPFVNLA

| Binder | EC50 (read off the curve) |
| --- | --- |
| B2 | 6 ng/mL |
| B3 | 4 ng/mL |
| B4 | 7 ng/mL |
| B5 | 4 ng/mL |
| B6 | 6 ng/mL |
| B7 | 4 ng/mL |

molecular target: T3, human [202-500]-mouse chimeric EL with C2 tag (mouse; human) (UniProt Q9WVG5); assay: as above
T3 sequence: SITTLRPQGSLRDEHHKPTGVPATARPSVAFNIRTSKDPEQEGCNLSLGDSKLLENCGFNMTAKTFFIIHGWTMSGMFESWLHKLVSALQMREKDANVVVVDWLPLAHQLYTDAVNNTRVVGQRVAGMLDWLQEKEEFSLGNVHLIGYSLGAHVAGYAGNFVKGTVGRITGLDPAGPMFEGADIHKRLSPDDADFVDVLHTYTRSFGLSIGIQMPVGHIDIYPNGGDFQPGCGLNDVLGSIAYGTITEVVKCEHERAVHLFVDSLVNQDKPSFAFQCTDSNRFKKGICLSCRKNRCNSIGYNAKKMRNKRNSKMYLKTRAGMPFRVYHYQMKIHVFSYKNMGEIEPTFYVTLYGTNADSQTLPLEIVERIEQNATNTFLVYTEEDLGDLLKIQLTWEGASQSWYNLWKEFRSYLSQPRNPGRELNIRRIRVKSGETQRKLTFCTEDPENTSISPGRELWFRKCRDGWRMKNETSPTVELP

| Binder | EC50 (read off the curve) |
| --- | --- |
| B8 | 4 ng/mL |
| B9 | 8 ng/mL |
| B10 | 20 ng/mL |
